Reference: patent US20160297863A1 (WAKE FOREST UNIVERSITY HEALTH SCIENCES, published 2016)

Molecular target: EphA2 receptor on GBM cells (human, UniProt P29317 24-976)
Assay: cell-based or functional assay

Sequence of EphA2 receptor on GBM cells (P29317 24-976): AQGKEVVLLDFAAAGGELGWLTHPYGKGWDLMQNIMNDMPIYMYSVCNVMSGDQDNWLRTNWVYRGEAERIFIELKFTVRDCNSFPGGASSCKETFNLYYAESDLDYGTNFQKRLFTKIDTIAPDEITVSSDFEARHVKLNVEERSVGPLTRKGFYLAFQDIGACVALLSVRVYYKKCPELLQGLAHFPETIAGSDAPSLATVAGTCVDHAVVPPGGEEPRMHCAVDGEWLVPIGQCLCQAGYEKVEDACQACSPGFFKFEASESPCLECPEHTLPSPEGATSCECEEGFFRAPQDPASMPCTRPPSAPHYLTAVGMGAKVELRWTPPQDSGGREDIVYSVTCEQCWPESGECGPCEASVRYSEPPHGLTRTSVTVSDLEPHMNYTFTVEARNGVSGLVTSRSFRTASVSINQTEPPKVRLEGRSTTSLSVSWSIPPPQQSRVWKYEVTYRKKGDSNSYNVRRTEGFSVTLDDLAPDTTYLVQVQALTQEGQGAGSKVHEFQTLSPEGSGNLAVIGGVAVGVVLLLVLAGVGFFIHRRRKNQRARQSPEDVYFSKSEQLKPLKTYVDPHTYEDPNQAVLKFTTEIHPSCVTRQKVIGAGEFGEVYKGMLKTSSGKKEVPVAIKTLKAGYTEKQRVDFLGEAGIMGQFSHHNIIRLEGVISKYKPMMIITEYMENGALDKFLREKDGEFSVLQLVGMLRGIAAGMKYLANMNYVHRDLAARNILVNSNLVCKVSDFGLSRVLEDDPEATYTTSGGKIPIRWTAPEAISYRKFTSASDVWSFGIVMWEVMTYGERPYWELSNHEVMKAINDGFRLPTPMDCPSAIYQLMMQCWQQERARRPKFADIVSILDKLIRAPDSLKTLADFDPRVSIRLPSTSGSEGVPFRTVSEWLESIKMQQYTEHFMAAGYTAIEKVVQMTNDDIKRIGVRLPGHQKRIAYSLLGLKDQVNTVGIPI

B1: eA5-PE-C (eA5-Fc chemically conjugated to PE38QQR, glycosylated form) (other)
chain: QDPGSKAVADRYAVYWNSSNPRFQRGDYHIDVCINDYLDVFCPHYEDSVPEDKTERYVLYMVNFDGYSACDHTSKGFKRWECNRPHSPNGPLKFSEKFQLFTPFSLGFEFRPGREYFYISSAIPDNGRRSCLKLKVFVRPTNSCMKTIGVHDRVFDVNDKVENSLEPADDT
IC50, GBM tumor cell killing (cell viability assay): ~10 pM
